B1: TPR t1 (parent)
chain: GACCAAUCUGCCCUCAGAGCUCGAGAACAUCUUCGGAUGCAGAGGAGGCAGGCUUCGGUGGCGCGAUAGCGCCAACGUCCUCAACCUCCAAUGCAUCCCACCACAUGAUGAUGCCUGAAGAGCCUUGGUUUUUUG

The variants in this data set derive from B1. Description: polymerase ribozyme fitness, log enrichment relative to wild type (log ratio); higher = more active; in vitro selection for triplet polymerase activity. Summed up:
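Each subunit of a heterodimeric triplet polymerase ribozyme was represented by a PCR-built, transcribed mutant library that underwent triplicate single-round in vitro selection with frozen incubation at −7 °C. Extended constructs were recovered by gel excision, streptavidin-bead capture and RT-PCR, and Illumina sequencing of input and output libraries kept genotypes with ≥10 input reads and ≥1 read per output. Fitness is the logarithm of genotype enrichment relative to wild-type enrichment, from inverse-variance-weighted replicate averages, with a logarithm base of 2.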
As to C11G C34A G122A C123A, the “polymerase ribozyme fitness (log ratio)” value was -1.19.

With C11G U131G, the “polymerase ribozyme fitness (log ratio)” value is -0.902.

For the variant C11G G45A C53G G57U C104G C114U, the “polymerase ribozyme fitness (log ratio)” value is -6.51.

For C11G U14A G19U U55G U92G A121G, the “polymerase ribozyme fitness (log ratio)” value was -3.45.

In the case of C11G G39A, the “polymerase ribozyme fitness (log ratio)” value is 0.759.

Consider C11G G51C A84G U131C, for which the “polymerase ribozyme fitness (log ratio)” value was -3.58.

As to C11U A121C, the “polymerase ribozyme fitness (log ratio)” value was 1.76.

As to C11G U96A U129G, the “polymerase ribozyme fitness (log ratio)” value is -2.87.

In the case of C11G U78C C102A A118U, the “polymerase ribozyme fitness (log ratio)” value is -1.3.

On to C11U C13U C20G G107A G117U G120U, for which the “polymerase ribozyme fitness (log ratio)” value is -3.09.

Consider C11U A41U G52U U125A, for which the “polymerase ribozyme fitness (log ratio)” value is -3.07.

Regarding C11G C115U U130A, the “polymerase ribozyme fitness (log ratio)” value is -0.677.

Take C11U C20U C22A A91U G113A: the “polymerase ribozyme fitness (log ratio)” value was -4.25.

Turning to C11U A16G U54G C102U C104U G117A, the “polymerase ribozyme fitness (log ratio)” value was -5.64.

C11G C89A: the “polymerase ribozyme fitness (log ratio)” value was -1.26.

For the variant C11G C64A A111U U130G, the “polymerase ribozyme fitness (log ratio)” value was -6.86.

Regarding C11U C49G A95C, the “polymerase ribozyme fitness (log ratio)” value is -2.54.

In the case of C11G U54C C62A A95C G128C, the “polymerase ribozyme fitness (log ratio)” value was -3.23.

In the case of C11G G44A, the “polymerase ribozyme fitness (log ratio)” value is -0.407.

Consider C11G U78G A91G A95C G135U, for which the “polymerase ribozyme fitness (log ratio)” value is -1.3.

For C11U C20U A27U, the “polymerase ribozyme fitness (log ratio)” value is -5.92.

As to C11U A41U G63A U78C C88U C114U U131G, the “polymerase ribozyme fitness (log ratio)” value is -6.29.

With C11U A26U C88A, the “polymerase ribozyme fitness (log ratio)” value was -4.34.

With C11G C56A, the “polymerase ribozyme fitness (log ratio)” value is -0.185.

As for C11G C40A C72U C101U C104U G135U, the “polymerase ribozyme fitness (log ratio)” value was -0.627.

In the case of C11G G63U C85U U87C G110A, the “polymerase ribozyme fitness (log ratio)” value is -2.67.

Turning to C11U A18C C82A C104U, the “polymerase ribozyme fitness (log ratio)” value was -2.34.

As for C11U A26U, the “polymerase ribozyme fitness (log ratio)” value was -3.21.

With C11U A83G, the “polymerase ribozyme fitness (log ratio)” value is -1.21.

C11G C88A C102A: the “polymerase ribozyme fitness (log ratio)” value is -1.55.

Turning to C11G C40A C53A, the “polymerase ribozyme fitness (log ratio)” value is -0.596.

As for C11G A29G, the “polymerase ribozyme fitness (log ratio)” value was -1.16.

For C11G A29U, the “polymerase ribozyme fitness (log ratio)” value was -1.95.

As for C11G C31A C73U, the “polymerase ribozyme fitness (log ratio)” value is -4.73.

With C11G G19A A37U C85G, the “polymerase ribozyme fitness (log ratio)” value is -3.64.

For C11U A46G G51U C80U, the “polymerase ribozyme fitness (log ratio)” value was -1.92.

In the case of C11G C49U C73A G77A C102U G110U, the “polymerase ribozyme fitness (log ratio)” value was -6.69.

For C11G U129C, the “polymerase ribozyme fitness (log ratio)” value was -0.495.

Turning to C11U A18U, the “polymerase ribozyme fitness (log ratio)” value was -1.98.

Regarding C11G C76U U78A, the “polymerase ribozyme fitness (log ratio)” value was found to be 0.137.

On to C11G A41C U87A U92G, for which the “polymerase ribozyme fitness (log ratio)” value is -1.84.

Regarding C11G U96A U112A G122A G128C, the “polymerase ribozyme fitness (log ratio)” value is -1.26.

C11G C76A C79U A90U A119C G120U: the “polymerase ribozyme fitness (log ratio)” value is -0.651.

With C11U C49A G107U G113C, the “polymerase ribozyme fitness (log ratio)” value was -6.14.

Regarding C11U C13G A24G G47C C49A C88G C94U A108U C114U, the “polymerase ribozyme fitness (log ratio)” value is -6.99.

Regarding C11G C114U C124G, the “polymerase ribozyme fitness (log ratio)” value is -2.07.

As to C11U A43U C53G G120A, the “polymerase ribozyme fitness (log ratio)” value is -1.5.

On to C11G U21A C72G G110A, for which the “polymerase ribozyme fitness (log ratio)” value was -3.29.

For C11G C79G C82A, the “polymerase ribozyme fitness (log ratio)” value was -1.78.

Turning to C11G C34U C86G A118U, the “polymerase ribozyme fitness (log ratio)” value is -5.02.

With C11U C34A G48U U87A, the “polymerase ribozyme fitness (log ratio)” value is -5.34.

As to C11G C12G C56A A118G, the “polymerase ribozyme fitness (log ratio)” value is -0.95.

Turning to C11G G35A G117U, the “polymerase ribozyme fitness (log ratio)” value was -6.34.

Consider C11G G61U, for which the “polymerase ribozyme fitness (log ratio)” value was 0.628.

Regarding C11U C15U C56U C72U, the “polymerase ribozyme fitness (log ratio)” value was -1.82.

Regarding C11G C70G, the “polymerase ribozyme fitness (log ratio)” value is -2.08.

In the case of C11G C70A, the “polymerase ribozyme fitness (log ratio)” value was -0.991.

C11G C104A U130A: the “polymerase ribozyme fitness (log ratio)” value is -2.13.

C11U A29G G77U A84U C89A: the “polymerase ribozyme fitness (log ratio)” value is -6.04.

On to C11U A83U C101G, for which the “polymerase ribozyme fitness (log ratio)” value is -2.28.

As to C11G A37U C72G A111C U129A U132C, the “polymerase ribozyme fitness (log ratio)” value was -0.79.

Consider C11G C15G G71U G93A G128U, for which the “polymerase ribozyme fitness (log ratio)” value was -4.47.

Regarding C11G G44A U133G, the “polymerase ribozyme fitness (log ratio)” value is -1.89.

For C11U C49G, the “polymerase ribozyme fitness (log ratio)” value is -1.44.

For C11U A27G C86U C115U, the “polymerase ribozyme fitness (log ratio)” value is -7.32.

In the case of C11G C76G, the “polymerase ribozyme fitness (log ratio)” value was -0.0651.

For the variant C11G A37C G61A, the “polymerase ribozyme fitness (log ratio)” value is -0.00618.

With C11G A121G G127U, the “polymerase ribozyme fitness (log ratio)” value amounted to 0.00144.

As to C11G A29U G117C, the “polymerase ribozyme fitness (log ratio)” value is -3.19.

Turning to C11U C40U A121C U129G, the “polymerase ribozyme fitness (log ratio)” value was determined as 0.406.

Consider C11G C13U A37U A83C, for which the “polymerase ribozyme fitness (log ratio)” value is -0.361.

With C11U C20A A37U G61A A83C C97A C98U U112C, the “polymerase ribozyme fitness (log ratio)” value was -7.47.

As to C11G G57A G93A U96A, the “polymerase ribozyme fitness (log ratio)” value was -2.56.

Turning to C11G C94U U96A, the “polymerase ribozyme fitness (log ratio)” value was -0.725.

With C11G G25A, the “polymerase ribozyme fitness (log ratio)” value is -4.53.

Turning to C11G G25U, the “polymerase ribozyme fitness (log ratio)” value was -4.49.

Consider C11U C40G C53U C62U C73G C79A C86U, for which the “polymerase ribozyme fitness (log ratio)” value is -4.3.

For C11U C15A C64U A84U, the “polymerase ribozyme fitness (log ratio)” value was -2.56.

As for C11U C15A C56G G69U, the “polymerase ribozyme fitness (log ratio)” value is -2.64.

Take C11G U59A C85A U87A: the “polymerase ribozyme fitness (log ratio)” value was -1.45.

In the case of C11U C13G A66C C76G A118U C124A U133A, the “polymerase ribozyme fitness (log ratio)” value was -0.556.

For the variant C11G A41U C56A C72U U92G, the “polymerase ribozyme fitness (log ratio)” value was -1.47.

On to C11G A95C C114G G120A, for which the “polymerase ribozyme fitness (log ratio)” value was -6.61.

In the case of C11G A29G C94G, the “polymerase ribozyme fitness (log ratio)” value is -2.16.

Source of the values: the RNAGym collection of RNA variant scans (doi:10.1073/pnas.2313332121).
